This note sets out measurements from the domain aggregation screens of Martell et al. (2025).

The series in a line: soluble fraction after stress (log2 fold change); higher = more stays soluble; pooled small domains, quantitative proteomics. Particulars: stress: pH 4. The procedure, abridged: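 Pooled custom libraries of small protein domains were stressed at pH 4 and then measured by high-throughput quantitative proteomics. The fold change in the amount of each domain that stays soluble after the acid stress serves as a measure of aggregation propensity. Fold changes are given on a log2 scale, and higher values mean more of the domain stayed soluble.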
In the case of “HMDPIATLTPREREVLSLMAEGRSNGAIAAALVVGDGAVEKHVSNIFQKLELTPAEGDHRRVLAVLRWLE”, the “soluble fraction (log2)” value is -0.864.

With “HMDPLADLFSRIRNAQMRNKKVVTSPASKLRAGILEVLAKEGYIRGYAMTQHASGKNELDIELN”, the “soluble fraction (log2)” value is -0.0916.

As to “HMDPNAITSAQVTKLQVLANEKGFAERQARLTMWAEVIGRNVGTANELTKAEAHKLIEHMDALPV”, the “soluble fraction (log2)” value was -0.162.

Take “HMDPNFKYIIRIANSDVSGEQKLAYALTSIRGIGERTSNAIIQKLGLDSTQLAGKLTDKNVEDIESA”: the “soluble fraction (log2)” value is -0.0403.

With “HMDPPQEVWDLTRSYLDSMNRPVHGHKSPQETYLRQVKSHRLPATALWDYFMAQRFHAVHATSESAA”, the “soluble fraction (log2)” value was -0.364.

As for “HMDPPYKDKNLHELLLKINNLNILKKDSVIILHRHKKQKEIFPSNFKIIEQKQYGISKIIFLTVL”, the “soluble fraction (log2)” value came out at 0.217.

Turning to “HMDPRTSSLTPQERKVLELVGGGLTNRQIAAEMFLAEKTVKNYVSSLLAKLGFERRTQAAVFIASPAF”, the “soluble fraction (log2)” value is -0.0756.

As to “HMDPSKLVEVQEPVSMKALSEGLGIKVTELIATFAFKLKIGGKNINSMLSNDEVELVALDLERNIKVV”, the “soluble fraction (log2)” value was -0.0335.

Regarding “HMDPTEPLFVGVVTAEPYLNIREYPTTQSKDLGDLFPGMHVNVYEIVPNWYRIDDGWVASAWVKRDWGGG”, the “soluble fraction (log2)” value was -0.314.

For “HMDPTIRRGELIDAASRLFLSKGYAATSVRDILDEVGNRTASPSVFYYYFKSKEEIYQAVLRRHSE”, the “soluble fraction (log2)” value was -0.485.

Take “HMDPTVSGQTGSVVREIRPGVPGEVELSVPLYGIRRWQAMADGILAEGTRVTVIQAEGVRLSVRPV”: the “soluble fraction (log2)” value was -0.251.

As for “HMDPTVTFIVQVNGRVRDKITLSSDISENEAKNVALESPKITPHISGKSLSRVIFVPGKLINLVV”, the “soluble fraction (log2)” value was found to be 0.162.

For the sequence “HMDPVATLTPREREVLELMAEGRTNAGIAEAMVVTEGAVEKHIQRIFAKLGLHADGGVHRRVAAVLALLG”, the “soluble fraction (log2)” value is -0.872.

For “HMDQDIILHKVQPGDTLSKILLHYHSHQDRNKLQGLIAESMTANPFIKNPDLIYPGQLIQVPVPA”, the “soluble fraction (log2)” value was determined as 0.124.

On to “HMDQFMLQSAWLRAVQHVMKHTDDVGTQFAEEARRMHYGEADERPIRGQATSDEARALHDEGIEVMALPI”, for which the “soluble fraction (log2)” value was -0.192.

As for “HMDQILIHLKEGIDVTDVQPMLKALDLNVRMFNRDKNIIVISVLNRELDAIPQTIAALRPWEELFDSA”, the “soluble fraction (log2)” value was -0.184.

For the sequence “HMDQNVSVPKLAGLQVEEANAILKSKGLHIEIIDSIYQKDAVPGAIIEQVPEENSKVKKGRAIYVSVYAK”, the “soluble fraction (log2)” value worked out at 0.0139.

Turning to “HMDQVYYDLKSLIELLPADQMEVLKMRYFEELSFKKIAQKIDVSINTALGRMRYALINLRALSKKHHID”, the “soluble fraction (log2)” value was -1.02.

For “HMDRDMGSMTDFENVRDAYLTGKVWNVGDLIEANGITGIIIRKGTNYVSYNDGDGKVHKAWLHDITL”, the “soluble fraction (log2)” value is -0.98.

Consider “HMDREILWTNYVAARKQEFIASSIDTIGAEYLDNRRFWDTQFEREWTIIAERLASGFGLTDDILSIVGSDF”, for which the “soluble fraction (log2)” value was -2.71.

On to “HMDRETEEYELIRAKLEWLYQKQTGTIRNQTAKILHHLEIAKEEGNYYLYLKIKEEAKQWLVQASMYLD”, for which the “soluble fraction (log2)” value is -0.725.

With “HMDRGDVTREALIKAAIEIFGRDGFHAASTRAIAERAGANQALIGYHFRGKLGLYHATFEYIIGKI”, the “soluble fraction (log2)” value was -0.474.

Regarding “HMDRMINYSPIVAKVPQDDYTTKVYNIPIYSELTVVDKISEPEPLIAPIYRFKYITPEDEEIEFDIPV”, the “soluble fraction (log2)” value was -0.39.

Turning to “HMDRMMQPETWGRVYQWITDDPQVPDREEVLTLIKYHYGDFGKLMKLLHRLNEGKAWTYLSEHIFPRM”, the “soluble fraction (log2)” value is -0.698.

Take “HMDRNEFVSTLRAALTGAVSPAIVEDNVRYYQNYISQEIASGKSEKEVLDGLGDPRLIARTIIDT”: the “soluble fraction (log2)” value was 0.14.

“HMDRNIVYSDFIRSVNQGQVSEVLVQGDNIRGRYLNGKVFQTFAPKDPSLISTLRNKGVRISAEPA”: the “soluble fraction (log2)” value is -0.022.

In the case of “HMDRRSTTLQDIYTRIDAEEISEALELIPKLGEIEFEQNRAEIAEAAGVRPAVLDKLRKQAAKQENNKK”, the “soluble fraction (log2)” value was -0.216.

As for “HMDRSAQVLFLEHARSRLPQRIQWAEELAELLSIGIDSAYRRIRGETALTFNEAVSVSRKYDISLDYLFK”, the “soluble fraction (log2)” value is -1.4.

For “HMDRSKREKEQQELMLKVQQIFDDNQQRFGAEKIRTVLAQNGVRVSVKRVSAIMQELNLRSIR”, the “soluble fraction (log2)” value came out at 0.169.

Regarding “HMDRVMPVPEALIGMRFDIAVSRMLGVSRSQAAAYIDRGQVSIAGRGSQRSAQKSEKLVQGDSIEVAIA”, the “soluble fraction (log2)” value came out at 0.186.

As for “HMDRWSLLTLTTLAGGTLRFTELKRAIGDISQRMLAQTLRTLEREGYVSRKVYATIPPKVEYRLTALGQSL”, the “soluble fraction (log2)” value is not below 0.43.

As to “HMDRYAVRAEELAAALAQYHRHVGVYPENLEDLIAPTGPRGYRGPYLSELPTNPSTSKPDWGYDPATGRVS”, the “soluble fraction (log2)” value is 0.159.

As for “HMDSAFVSDIRDAFDEAGVDSYRFFGTHSFKRGGVQLYRLLGVSDQEIKERGHWQTFSAYFAYVQA”, the “soluble fraction (log2)” value is -0.303.

Take “HMDSESGAIIRRAVAQLAPKFRSTIVLRLIEGYSTEETAQILQLPVGTVLSRLARAKVQLMNLLTPYKEL”: the “soluble fraction (log2)” value was -0.0277.

Take “HMDSIDIDAETKSLGPNAPQIIKGIKEWGQGLVAKGVWSDQDFEEFKVFAATANGINALNKVRKFY”: the “soluble fraction (log2)” value is -0.192.

For the sequence “HMDSIDVQQKKLLTDIELGNIEGIKLFLKRHNNTINFLTIKGFHPLVYAVRNNNMEIVNLFLTT”, the “soluble fraction (log2)” value turned out to be 0.159.

Take “HMDSIGTQIRKLREEAEMPLRKLSALLDIDQSTLSKIERDERRANTQMIEQIAKIFKVNKEQLLVA”: the “soluble fraction (log2)” value is -1.98.

For the sequence “HMDSKPNDLLFVYVSQLIRSLTLNSSKKDSELADELEVSISQIRIWLKKLINEQLIVKESKPVKYRWKG”, the “soluble fraction (log2)” value was -0.327.

For the sequence “HMDSLARKTVNGAEFYIYPVESAEGFYSLRRKFGVSQEEVIKYNPSAQNGLKSGQVLLIPVT”, the “soluble fraction (log2)” value came out at 0.125.

Turning to “HMDSLQDFAYEEIKKRIQNGEYAPGTKLNTQEISDSLGISRSPVLAAINRLIALGLVEATPRKGTTVA”, the “soluble fraction (log2)” value is -0.0359.

For “HMDSLSGQQGRVLEEINGFLQTGKVLLNGMEWSAVSKQPEDILPVDTEVVVVRVEGAHLVVKKA”, the “soluble fraction (log2)” value was -0.488.

Take “HMDSPRITMDQLRIGLYVYLDLTWFQHPFAFSHFKINSEDQIKTILGLGLKSVRYDPALSDPV”: the “soluble fraction (log2)” value is -0.645.

For the sequence “HMDSQSVFADLVKSLSQKIASIPVWFEYTKNEQYDLISSYVSAKLKDLGVEFSQEEKEKFITMFMNS”, the “soluble fraction (log2)” value is -0.34.

Consider “HMDSRQIIAALQARYADETGITALKIKFNNVLGYFVDVPARYGDPLMKPPLSETFIHRQTLASNVRF”, for which the “soluble fraction (log2)” value is -0.0558.

Regarding “HMDSSITLMRMYIPKGHNWENKLISDVSMPTNSLALMIKRNGTTIIPKGDTMILAKDTLILSVPSYEPS”, the “soluble fraction (log2)” value is -1.86.

For “HMDSSNLSLIAGVGPTIEKKLRAAGITSWEQIAAWTEADVAKYDEELNLRGRITRDEWIEQAKELLAGKPP”, the “soluble fraction (log2)” value was found to be 0.309.

Consider “HMDSTLDLVATQGGRLDQVLAEMIPEHSRNRLQHWIKAGRVLVDGQPVLEPKHKIYGGEDLAVRVD”, for which the “soluble fraction (log2)” value turned out to be 0.123.

For “HMDSVSAVRTTHLNSYVLLLEKDGMAAATISRYIASMKGFFEYLFREHMIEEDPAFTLKPPKV”, the “soluble fraction (log2)” value was 0.0461.

Regarding “HMDSVVPNVVGMTAEKANKALTDAGLNVKITGATIGSGAVVHSQSIPAGTVTSKGTVVSIEMRFAAAEGD”, the “soluble fraction (log2)” value was -0.193.

In the case of “HMDSYSILGIEKESSMEDIEKAYIDKISKIKKEVKNEKNAAAFEAVLTKAYNDILSQKENISEEQELAE”, the “soluble fraction (log2)” value was found to be 0.22.

Consider “HMDTAGSVAIVSKSVIENGFGEIKYKGTYFKAQSDVYIPKDQMVKVIGKGDEQGSFLIVEKLN”, for which the “soluble fraction (log2)” value is -0.0172.

Take “HMDTIASESVRNRIEELISNENPKKPLSDQALVKMLQEFDIKIARRTVAKYREMLKIPPSSKRKQV”: the “soluble fraction (log2)” value was 0.0429.

For “HMDTIGSKVLAFLAGNLLDPTPFNYRFGYLYLNRTSKVIVEETDTYIDSGMRMTQEAVAEIMQKFAQ”, the “soluble fraction (log2)” value was -2.74.

With “HMDTITMAGERYAVSDLEKVSGDIFEKAFGFEIDPKTADAKDVLPTMPKSDVDLFKKLSGIKP”, the “soluble fraction (log2)” value was -0.0953.

For the sequence “HMDTIYPFNPNFIDDYKGYVLGLNTNEIDRLLKYRSKGNWINSAEDFKKVTGIDDALLNKLSKSFKFPDWL”, the “soluble fraction (log2)” value is -0.991.

With “HMDTLRPLGRYQNVHLTKQELTALQSEFSDWSERIERLSSYMASTGRKYQNHAATIRLWAEKDK”, the “soluble fraction (log2)” value is 0.161.

In the case of “HMDTMINLIGLNLKKAKKELSNLGVNVKKVRYKKSSVYDEGVVIDQSIEAGRNIKNGDFITITVSSGKA”, the “soluble fraction (log2)” value is -0.0745.

Take “HMDTNEPFAQLQLRFTDPIQYDYEVIRPVVLFSQSVTDRSDETEMPRTTVREKARQFVTEGMLGLVDK”: the “soluble fraction (log2)” value is -0.216.

With “HMDTNTIIGLRIKALRTEKKYTLKYLSENSGLSIGFLSQLERGMTSVAIDSLDKISKVLDVELSSFFN”, the “soluble fraction (log2)” value is -0.65.

Turning to “HMDTPMQEAVLQRLRDKVAQAAAGSKLPTVRQLIADYGVGQHVIQAALEKLRTEGLITSHVGKGTFVG”, the “soluble fraction (log2)” value was found to be 0.142.

Take “HMDTPMYMAIIEEVRFQIANEILKEGEQLPSIRNLAKTLKVSVITVKRAYKELEEAGYITTIPAKGSKVS”: the “soluble fraction (log2)” value was -0.167.

For the sequence “HMDTQKYDLNDDGRFDVQDVTYLQIKIAGDGELTDNQKKIADYNNDGKIDVQDVTSAQMLIS”, the “soluble fraction (log2)” value is -0.724.

Turning to “HMDTSADEVKQLIASFVEQEDKRKPLSDQKIVELLAEKEQKISRRTVAKYRDALNIPSSSKRKRF”, the “soluble fraction (log2)” value was -0.141.

With “HMDTSISHLVGRTGEAVTDLRPAGTVMIDGELYDARATEGFIEKGEIVKAIKYQYGQLNVRRVSK”, the “soluble fraction (log2)” value came out at 0.149.

Take “HMDTVSYSTLLRDIDAKEIKQLDLVPGRREVRVQYNDGRRVTVPVFANDNQILRAAESSGTPLTVV”: the “soluble fraction (log2)” value came out at 0.0175.

As to “HMDVADITGTRKAAILLLTMDEELSKELLKEFERHEIEAIGKEIANIKYIPENIVKQVHSEFLKNINKS”, the “soluble fraction (log2)” value is -0.752.

On to “HMDVFTAKTASHIQELREKLGQQAVFGRSDVQNALGLKATRSSALLREMAEHGIIEPVTGYGKGRYHFRS”, for which the “soluble fraction (log2)” value amounted to 0.361.

Regarding “HMDVIDDAQAMEIALEDAGLSMDDLDRYELELHTKRSELVYSIELKSGTEEYEYDLRAADGTILKRDTDF”, the “soluble fraction (log2)” value is -0.799.

For the sequence “HMDVLDVADNVNDDMSFADAFAAARSEVGAGGIFYWHGKAYGTYYENEWAGMSEEDKADYWDAVARTTS”, the “soluble fraction (log2)” value was -0.779.
